The target of assay [1] is human cathepsin K (human) (UniProt P43235).
Assay [2] deals with human cathepsin L (human). Kind of assay: enzyme inhibition kinetics (fluorogenic peptide substrate activity assay); inhibitor preincubated with protease 15 min, 37 °C; IC50 from residual velocities, Ki by the Cheng-Prusoff equation; 50 mM sodium acetate pH 5.5, 0.1% polyethylene glycol 1500, 2.5 mM dithiothreitol (cathepsins L, K, V, B, F, C and papain; 50 mM NaCl for cathepsin C).

The target in assay [3] is human cathepsin V (human) (UniProt O60911). Described as above.
The target of assay [4] is human cathepsin K (human) (UniProt P43235). The description is as above.
For assay [5], the target named is human cathepsin L (human).
For assay [6], the target named is human cathepsin V (human) (UniProt O60911).
The target of assay [7] is human cathepsin K (human) (UniProt P43235). This is another data set of the same source.

A value given as a limit tells only on which side of the number the result lay.

We go through 2 substances from publication PMC10889554.

Sequence of human cathepsin K (human) (P43235 115-329): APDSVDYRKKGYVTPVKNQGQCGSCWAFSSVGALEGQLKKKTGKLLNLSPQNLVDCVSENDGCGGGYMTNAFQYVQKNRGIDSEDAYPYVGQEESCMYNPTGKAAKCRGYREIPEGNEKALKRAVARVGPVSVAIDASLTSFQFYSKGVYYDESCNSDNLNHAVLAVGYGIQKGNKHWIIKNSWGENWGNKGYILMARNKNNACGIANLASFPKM
Sequence of human cathepsin V (human) (O60911 114-334): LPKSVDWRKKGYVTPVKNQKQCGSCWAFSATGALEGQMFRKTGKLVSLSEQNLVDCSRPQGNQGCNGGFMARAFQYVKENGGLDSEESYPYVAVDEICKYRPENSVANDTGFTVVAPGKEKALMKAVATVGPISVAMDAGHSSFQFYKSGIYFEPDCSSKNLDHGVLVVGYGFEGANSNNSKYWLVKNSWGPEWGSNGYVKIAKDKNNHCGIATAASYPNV

In the case of “Ir-thyropin (IrThy), recombinant full-length mature protein (natural protein)”, the reduction of inhibition of cathepsin K activity by IrThy with 0.3 M NaCl, without heparin in assay [1] came to 20%. In assay [2], the Ki (usually the dissociation constant of the complex between target and ligand, obtained from inhibition or displacement) was 201 nM. Further, the Ki in assay [3] worked out at 34.7 nM. This substance showed an inhibition constant (Ki) in assay [4] of 56.9 nM. This substance also yielded a change of % inhibition of cathepsin L activity by IrThy with GAGs at 10 µg/mL in assay [5] of under 15%. The same substance registered a % inhibition of cathepsin V activity by IrThy, no GAG, pH 5.5 in assay [6] of 25%. In addition, in assay [7], the % inhibition of cathepsin K activity by IrThy with chondroitin-4-sulfate at 10 µg/mL is 16%; the % inhibition of cathepsin K activity by IrThy with chondroitin-6-sulfate at 10 µg/mL was 23%; the % inhibition of cathepsin K activity by IrThy, no GAG, pH 5.5 is 50%.
For the substance “IrThy-Cd, recombinant C-terminal Tg1 domain of IrThy (domain or fragment)”, the Ki in assay [2] worked out at 795 nM; in assay [3], 40.7 nM; in assay [4] it was 53.1 nM.
